Target: T1, ZNF148 (ZBP-89), recombinant (Homo sapiens, UniProt Q9UQR1 1-794)
T1 sequence: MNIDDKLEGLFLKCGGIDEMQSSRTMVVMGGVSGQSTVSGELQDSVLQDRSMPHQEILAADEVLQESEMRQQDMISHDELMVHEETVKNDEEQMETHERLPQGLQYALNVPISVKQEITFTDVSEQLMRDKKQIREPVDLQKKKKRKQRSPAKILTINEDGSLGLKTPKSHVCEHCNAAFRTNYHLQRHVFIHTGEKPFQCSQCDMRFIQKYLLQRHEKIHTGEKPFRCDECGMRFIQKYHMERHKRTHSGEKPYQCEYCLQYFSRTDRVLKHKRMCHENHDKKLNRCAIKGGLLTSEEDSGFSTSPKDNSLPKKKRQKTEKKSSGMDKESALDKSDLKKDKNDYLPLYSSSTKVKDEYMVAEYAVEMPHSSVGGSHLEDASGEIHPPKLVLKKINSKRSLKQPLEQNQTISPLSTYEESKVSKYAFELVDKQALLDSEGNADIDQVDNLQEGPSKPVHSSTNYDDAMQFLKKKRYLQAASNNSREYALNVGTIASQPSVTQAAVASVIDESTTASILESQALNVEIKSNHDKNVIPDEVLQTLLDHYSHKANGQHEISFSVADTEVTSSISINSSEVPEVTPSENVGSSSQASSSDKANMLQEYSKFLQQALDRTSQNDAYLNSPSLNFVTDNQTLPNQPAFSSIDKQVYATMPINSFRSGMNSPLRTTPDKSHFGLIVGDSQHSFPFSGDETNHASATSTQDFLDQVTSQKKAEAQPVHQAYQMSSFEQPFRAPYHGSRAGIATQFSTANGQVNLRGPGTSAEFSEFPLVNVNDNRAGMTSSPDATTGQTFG
Assay: EMSA; positive control; EMSA: 10 ug nuclear extract or 90-630 ng recombinant ZNF148 with 3'-biotin probe, 20 min on ice, 4-20% TBE gel; antibody preincubation 20 min at room temperature; buffer, salt and pH not stated
Settings: protein: commercial; label: 3' biotin; blunt

B1: ZNF148 binding motif, CDKN1A/p21 promoter (dsDNA)
DNA 1: CGCAGGCGAGGGACTGGGGGAGGAGGGAAGTGCCC
DNA 2: GGGCACTTCCCTCCTCCCCCAGTCCCTCGCCTGCG
- binding result: binds

— paper PMC5414179, “Functional characterization of a multi-cancer risk locus on chr5p15.33 reveals regulation of TERT by ZNF148”
